The record followed here is paper doi:10.1101/2025.08.14.670363.

The target in test [1] is Rabbit skeletal muscle actin filaments (rabbit) (UniProt P68135). The test is described as follows: high-speed atomic force microscopy; F-actin held on a mica-supported lipid bilayer (DPPC:DPTAP:biotin-cap-DPPE 89:10:1); actin-free XCAP1 or XCAP1-actin complex injected at 20-100 nM; 30 mM KCl, 10 mM imidazole-HCl pH 7.0, 1 mM MgCl2, 0.5 mM EGTA, 10 mM DTT, 10 % glycerol, 0.2 mM ATP; room temperature; dwell time of single particles.

Test [2] deals with actin-free Xenopus cyclase-associated protein 1 (Xenopus laevis). Described as above.

One may read the stoichiometry N as the number of molecules, sites or subunits per partner or assembly. “actin-free Xenopus cyclase-associated protein 1 (natural protein)”: in test [1], the dwell time worked out at 0.2 s, the dwell time (small particles of the XCAP1-actin complex preparation) came to 0.2 s, the dwell time at the filament end turned out to be 0.24 s and the dwell time at the filament side was determined as 0.2 s. The stoichiometry N in test [2] came to 4.
